From US20140348834A1 (published 2014)
Where a chain is given by its changes, count along the chain named. Like-named read-outs stand apart in the source and are kept apart here.

T1: mouse IL-17A (mouse, UniProt Q62386 26-158, limits assumed)
T1 construct: Purified recombinant protein in SPR; also called MuIL-17A; murine IL-17A
T1 sequence (looked up): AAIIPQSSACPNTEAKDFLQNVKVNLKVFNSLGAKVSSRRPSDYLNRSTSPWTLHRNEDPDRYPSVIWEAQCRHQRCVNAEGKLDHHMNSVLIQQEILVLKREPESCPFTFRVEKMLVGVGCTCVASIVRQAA

T2: rat IL-17A (rat, UniProt Q61453 18-150, limits assumed)
T2 construct: Purified recombinant protein in SPR
T2 sequence (looked up): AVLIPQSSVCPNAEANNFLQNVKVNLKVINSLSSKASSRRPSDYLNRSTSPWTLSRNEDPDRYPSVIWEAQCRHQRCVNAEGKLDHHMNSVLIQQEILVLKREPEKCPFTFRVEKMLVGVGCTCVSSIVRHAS

B1: ML109-10F7 (antibody, V domains shown)
VH: QVQLQQSGAELVRPGTSVTLSCKASGYIFTDYEIHWVKQTPVHGLEWIGVNDPESGGTFYNQKFDGKAELTADKSSSTAYMELRSLTSEDSGVYYCTRYYRYESFYGMDYWGQGTSITVSS
VL: QIVLTQSPAIMSASPGEKVTMTCSASSSISYIYWFQQKPGTSPKRWIYATFELASGVPARFSGSGSGTSYSLTISSMEAEDAATYYCHQRSSYPWTFGGGSKLEIKR
notes: Hybridoma-derived murine mAb; also called 10F7.3D1
B2: IL17-h10F7.6 (antibody, V domains shown)
VH: EVQLVQSGAEVKKPGSSVKVSCKASGYTFTDYEIHWVRQAPGQGLEWIGVNDPESGGTFYNQKFDGRATLTADKSTSTAYMELSSLRSEDTAVYYCTRYYRYESFYGMDYWGQGTTVTVSS
VL: DIQLTQSPSSLSASVGDRVTITCSASSSISYIYWFQQKPGKSPKRWIYATFELASGVPSRFSGSGSGTDYTLTISSLQPEDFATYYCHQRSSYPWTFGQGTKLEIKR
notes: IgG; constant regions not specified; also called h10F7.6 (VH.1a-Vk.1a)
B3: IL17-h10F7.17 (antibody, V domains shown)
VH: B2 VH
VL: QIVLTQSPDFQSVTPKEKVTITCSASSSISYIYWFQQKPDQSPKRWIYATFELASGVPSRFSGSGSGTDYTLTINSLEAEDAATYYCHQRSSYPWTFGQGTKLEIKR
notes: IgG; constant regions not specified
B4: IL17-h10F7.11 (antibody, V domains shown)
VH: B2 VH
VL: B3 VL with Q1E
notes: IgG; constant regions not specified; also called h10F7.11 (VH.1a-Vk.2a)

Assays:
human IL-17A [1] = target: T3, human IL-17A (human, UniProt Q16552 24-155); test: cell-based or functional assay
human IL-17A [2] = target: T3, human IL-17A; test: SPR (Biacore 3000), antibody captured by anti-Fc, antigen in solution
Procedure: (§1) The binding of antibodies to purified recombinant human, cyno, rat, mouse, rabbit IL-17 and human IL-17A/F were determined by surface plasmon resonance-based measurements with a Biacore® 3000 instrument (Biacore® AB, Uppsala, Sweden) using running HBS-EP (10 mM HEPES [pH 7.4], 150 mM NaCl, 3 mM EDTA, and 0.005% surfactant P20) at 25° C. […] Approximately 5000 RU of goat anti-mouse or anti-human IgG (Fcγ) fragment specific polyclonal antibody (Pierce Biotechnology Inc, Rockford, Ill.) diluted in 10 mM sodium acetate (pH 4.5) was directly immobilized across a CM5 research grade biosensor chip using a standard amine coupling kit according to manufacturer's instructions and procedures at 25 μg/ml. Unreacted moieties on the biosensor surface were blocked with ethanolamine. Modified carboxymethyl dextran surface in flowcell 2 and 4 was used as a reaction surface. Unmodified carboxymethyl dextran without goat anti-mouse or anti-human IgG in flow cell 1 and 3 was used as the reference surface. For kinetic analysis, rate equations derived from the 1:1 Langmuir binding model were fitted simultaneously to association and dissociation phases of all eight injections (using global fit analysis) with the use of Biaevaluation 4.0.1 software. Purified antibodies were diluted in HEPES-buffered saline for capture across goat anti-mouse or anti-human IgG specific reaction surfaces. Antibodies to be captured as a ligand (25 μg/ml) were injected over reaction matrices at a flow rate of 5 μl/min. The association and dissociation rate constants, kon (unit M-1s-1) and koff (unit s-1) were determined under a continuous flow rate of 25 μl/min. Rate constants were derived by making kinetic binding measurements at ten different antigen concentrations ranging from 10 nM to 200 nM. The equilibrium dissociation constant (unit M) of the reaction between antibodies and recombinant purified IL-17 antigens was then calculated from the kinetic rate constants by the following formula: KD=koff/kon. Binding was recorded as a function of time and kinetic rate constants are calculated. In this assay, on-rates as fast as 10⁶ M⁻¹ s⁻¹ and off-rates as slow as 10⁻⁶ s⁻¹ can be measured.

mouse IL-17A [3] = target: T1, mouse IL-17A; test: as above
Procedure: as §1

rat IL-17A [4] = target: T2, rat IL-17A; test: as above
Procedure: as §1

cynomolgus monkey IL-17A [5] = target: T4, cynomolgus monkey IL-17A (cynomolgus monkey, UniProt A0A2K5TTB0 24-155); test: as above
T4 construct: biotinylated in the ELISA; also called cyno IL-17; Cyno IL-17A
Procedure: as §1

human IL-17A/F [6] = target: T5, human IL-17A/F (human, UniProt Q16552 24-155; Q96PD4 31-163); test: as above
T5 construct: Recombinant; biotinylated in the ELISA; also called hIL-17A/F; HuIL-17A/F
Procedure: as §1

human IL-17A [7] = target: T3, human IL-17A; test: as above; remark: listed apart in the source
Procedure: as §1

mouse IL-17A [8] = target: T1, mouse IL-17A; test: as above; remark: listed apart in the source
Procedure: as §1

rat IL-17A [9] = target: T2, rat IL-17A; test: as above; remark: listed apart in the source
Procedure: as §1

cynomolgus monkey IL-17A [10] = target: T4, cynomolgus monkey IL-17A; test: as above; remark: listed apart in the source
Procedure: as §1

human IL-17A/F [11] = target: T5, human IL-17A/F; test: as above; remark: listed apart in the source
Procedure: as §1

human IL-17A [12] = target: T3, human IL-17A; test: hIL17A ELISA
Procedure: The following protocol is used to characterize the binding of IL-17 antibodies to human IL-17 by enzyme-linked immunosorbent assay (ELISA). […] Coat ELISA plate with 50 μl per well of Goat anti Mouse IgG-Fc at 2 ug/ml, overnight at 4° C. […] Wash plate 3×PBS/Tween. […] Add 50 μl Mab diluted to 1 μg/ml in PBS/0.1% BSA to appropriate wells. Incubate 1 hr at room temperature (RT). […] Wash plate 3× with PBS/Tween. […] Add 50 μl of serial diluted biotin-IL17 (human IL-17, IL-17A/F, cyno IL-17) to appropriate wells. Incubate 1 hr at room temperature (RT). […] Wash plate 3× with PBS/Tween. […] Incubate 1 hr at RT. […] Wash plate 3× with PBS/Tween. […] Stop reaction with 50 μl 2N H₂SO₄. […] Read absorbance at 450 nm.

human IL-17A [13] = target: T3, human IL-17A; test: cell-based or functional assay; remark: listed apart in the source
cynomolgus monkey IL-17A [14] = target: T4, cynomolgus monkey IL-17A; test: cell-based or functional assay

T3 sequence (Q16552 24-155): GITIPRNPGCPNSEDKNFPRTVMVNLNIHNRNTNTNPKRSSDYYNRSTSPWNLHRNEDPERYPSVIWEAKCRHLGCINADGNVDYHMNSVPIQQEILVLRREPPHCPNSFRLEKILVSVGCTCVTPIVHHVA
T5 sequence (Q16552 24-155, chain 1 of 2): as the sequence (Q16552 24-155) above
T5 sequence (Q96PD4 31-163, chain 2 of 2): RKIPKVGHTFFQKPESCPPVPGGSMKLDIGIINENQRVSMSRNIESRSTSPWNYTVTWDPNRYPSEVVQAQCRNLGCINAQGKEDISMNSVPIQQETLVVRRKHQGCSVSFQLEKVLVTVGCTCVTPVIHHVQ
T4 sequence (A0A2K5TTB0 entry or part of it): as the sequence (Q16552 24-155) above, with T3A, P8S, N34S, I77V, N78K, P104R counted along it

Row | Binder | Kd (human IL-17A [7]) [nM] | koff (human IL-17A [7]) [s⁻¹] | kon (human IL-17A [7]) [M⁻¹ s⁻¹] | Kd (mouse IL-17A [8]) [nM] | koff (mouse IL-17A [8]) [s⁻¹] | kon (mouse IL-17A [8]) [M⁻¹ s⁻¹] | Kd (rat IL-17A [9]) [nM] | koff (rat IL-17A [9]) [s⁻¹] | kon (rat IL-17A [9]) [M⁻¹ s⁻¹] | Kd (cynomolgus monkey IL-17A [10]) [nM] | koff (cynomolgus monkey IL-17A [10]) [s⁻¹] | kon (cynomolgus monkey IL-17A [10]) [M⁻¹ s⁻¹] | Kd (human IL-17A/F [11]) [nM] | koff (human IL-17A/F [11]) [s⁻¹] | kon (human IL-17A/F [11]) [M⁻¹ s⁻¹] | EC50 (human IL-17A [12]) [nM] | Potency (pM), IL-17-driven IL-6 production in HS27 cells (human IL-17A [13]) [pM] | Potency (pM), IL-17-driven IL-6 production in HS27 cells (cynomolgus monkey IL-17A [14]) [pM] | also measured
1 | B1 |  |  |  |  |  |  |  |  |  |  |  |  |  |  |  |  |  |  | Potency (pM), IL-17-driven IL-6 production in HS27 cells (human IL-17A [1]): 54 pM; Kd (human IL-17A [2]): 0.0626 nM; koff (human IL-17A [2]): 0.000159 s⁻¹; kon (human IL-17A [2]): 2.54e+06 M⁻¹ s⁻¹; Kd (mouse IL-17A [3]): 0.221 nM; koff (mouse IL-17A [3]): 0.000354 s⁻¹; kon (mouse IL-17A [3]): 1.6e+06 M⁻¹ s⁻¹; Kd (rat IL-17A [4]): 0.197 nM; koff (rat IL-17A [4]): 0.000623 s⁻¹; kon (rat IL-17A [4]): 3.17e+06 M⁻¹ s⁻¹; Kd (cynomolgus monkey IL-17A [5]): 0.0684 nM; koff (cynomolgus monkey IL-17A [5]): 0.000145 s⁻¹; kon (cynomolgus monkey IL-17A [5]): 2.12e+06 M⁻¹ s⁻¹; Kd (human IL-17A/F [6]): 0.673 nM; koff (human IL-17A/F [6]): 0.000686 s⁻¹; kon (human IL-17A/F [6]): 1.02e+06 M⁻¹ s⁻¹
2 | B2 | 0.302 | 0.000185 | 612000 | 0.98 | 0.000384 | 392000 | 0.919 | 0.000454 | 494000 | 0.217 | 0.000154 | 711000 | 1.14 | 0.000696 | 609000 | 0.05 | 264 | 313 | 
3 | B3 |  |  |  |  |  |  |  |  |  |  |  |  |  |  |  | 0.1 | 510 | 293 | 
4 | B4 | 0.524 | 0.000142 | 271000 | 2.21 | 0.000522 | 236000 | 3.77 | 0.000667 | 177000 | 0.773 | 0.000351 | 454000 | 2.11 | 0.00086 | 408000 | 0.1 | 326 | 622 | 
